Measurements reported in the Human Domainome abundance scans (Beltran et al. 2025).
± gives the uncertainty stated by the source.

B1: CD2-associated protein, residues 109 to 169; numbered along this chain, Q9Y5K6 (parent)
chain: KKRQCKVLFEYIPQNEDELELKVGDIIDINEEVEEGWWSGTLNNKLGLFPSNFVKELEVTD

Variants of: B1
Experiment: abundance fitness (aPCA) (normalised: wild type 0, dead -1); higher = more abundant; growth selection in yeast, the domain comes from the species named
Conditions: Homo sapiens

Point of comparison: KKRQCKVLFEYIPQNEDGLELKVGDIIDINEEVEEGWWSGTLNNKLGLFPSNFVKELEVTD [E18G], abundance fitness -0.439 ± 0.21. Against it:
- KKRQCKVLFEYIPQNEDELELKVGDIIDINEEVEEGWWSGTLNNKLGLFPSNFAKELEVTD [V54A] — within error, -0.52 ± 0.15
- KKRQCKVLFEYIPQNVDELELKVGDIIDINEEVEEGWWSGTLNNKLGLFPSNFVKELEVTD [E16V] — within error, -0.182 ± 0.1
- KKRQCKVLFEYIPQNEDELELKVGDIIDINEEVEEGWWSCTLNNKLGLFPSNFVKELEVTD [G40C] — within error, -0.664 ± 0.14
- KKRQCKVLFEYIPQNEDELELKVGDIISINEEVEEGWWSGTLNNKLGLFPSNFVKELEVTD [D28S] — within error, -0.368 ± 0.1
- KKRQCKVLFEYIPQREDELELKVGDIIDINEEVEEGWWSGTLNNKLGLFPSNFVKELEVTD [N15R] — higher, 0.153 ± 0.078
- KKRQCKVLFEYIPQNEDELELKVGDIIDANEEVEEGWWSGTLNNKLGLFPSNFVKELEVTD [I29A] — within error, -0.833 ± 0.35
- KKRQCKVLFEYIPQNEDELELKVGDIIDINEEVEEGWWSGTLNNKLGLSPSNFVKELEVTD [F49S] — within error, -0.707 ± 0.16
- KKRQCKVYFEYIPQNEDELELKVGDIIDINEEVEEGWWSGTLNNKLGLFPSNFVKELEVTD [L8Y] — within error, -0.288 ± 0.18
- KKRQCKVLFEYIPQNEDELELKVGDIIDINEEVEEGWWSGTLNNKLGLFPSNFVKELDVTD [E58D] — higher, 0.056 ± 0.18
- KKRQCKVLFEYIPQNEDELELKVGDIIDINEEVEEGWWSGTLNNKLGLFPSNFVKELEQTD [V59Q] — within error, -0.166 ± 0.13
- KKRQCKVLFEYIPQNEDELENKVGDIIDINEEVEEGWWSGTLNNKLGLFPSNFVKELEVTD [L21N] — within error, -0.355 ± 0.29
- KKRQCKVLFEYIPQNEDELELKVGDIIDINEEVEEGWWSGTLNNKLGLFPSNFVKELEVTY [D61Y] — within error, -0.376 ± 0.21
- KKRQCKVLFEYIPQNEDELELKVGDIIDINEEHEEGWWSGTLNNKLGLFPSNFVKELEVTD [V33H] — within error, -0.404 ± 0.34
- KKRQCKVLFEYIPQNEDMLELKVGDIIDINEEVEEGWWSGTLNNKLGLFPSNFVKELEVTD [E18M] — within error, -0.503 ± 0.2
- KKRQCKVLFEYIPQNEDELELKVGDIIDINEEVEEGWWSGTLNNKLGLFPSNFVKELGVTD [E58G] — higher, 0.094 ± 0.11
- KKRQCKVLFEYIPQNEDELELKVWDIIDINEEVEEGWWSGTLNNKLGLFPSNFVKELEVTD [G24W] — within error, -0.764 ± 0.27
- KKRQCKVLFEYIPQNEDELELKVGDIIDINEEVEEDWWSGTLNNKLGLFPSNFVKELEVTD [G36D] — within error, -0.178 ± 0.079
- KKRQCKVLFEYIPQNEDELELKVGDIIDINEEVEEGWWSGTLNNKLGLFPGNFVKELEVTD [S51G] — within error, -0.35 ± 0.086
- KKRQCKVLFEYIPQNEDELELKVGDIIDINEEVEEKWWSGTLNNKLGLFPSNFVKELEVTD [G36K] — within error, -0.278 ± 0.21
- KKRQCKVLFEYIPQNEDELELKVGDIIWINEEVEEGWWSGTLNNKLGLFPSNFVKELEVTD [D28W] — within error, -0.268 ± 0.15
- KKRQCKVLFEYIPQLEDELELKVGDIIDINEEVEEGWWSGTLNNKLGLFPSNFVKELEVTD [N15L] — within error, -0.468 ± 0.1
- KKRQCKVLFEYIPQNEDELELKVGDIIDINEEVEEGWWSGTLNNKLGLFPSNFVKALEVTD [E56A] — within error, -0.366 ± 0.12
- KKRQCKVLFEYIPQNEDELELKVGDIIDINEEVEEGWWSGTLNNKLGLYPSNFVKELEVTD [F49Y] — within error, -0.27 ± 0.4
- KKRQCKVLFEYIPQNEDELELKVGDIIDINEEEEEGWWSGTLNNKLGLFPSNFVKELEVTD [V33E] — within error, -0.192 ± 0.2
- KKRQCKVLFEYIPQNEDELELKVGDIIDINEKVEEGWWSGTLNNKLGLFPSNFVKELEVTD [E32K] — within error, -0.188 ± 0.2
- KKRQCKVLFEYIPQNEDELELKVGDIIHINEEVEEGWWSGTLNNKLGLFPSNFVKELEVTD [D28H] — within error, -0.136 ± 0.25
- KKRQCKVLFEYIPQNEDELELKVGDIIDINEEVEEGWWSGTLNNKLGLFPSNFVKEGEVTD [L57G] — within error, -0.864 ± 0.44
- KKRQCKVLFEYIPQNEDELELKVGDIIDINEEVEEGWWSGTLNNKLGLFPRNFVKELEVTD [S51R] — within error, -0.361 ± 0.091
- KKRQCKVLFEYIPQNEDELELKVGDIIDINEEVEEGWWSGTLNNKLGLFPDNFVKELEVTD [S51D] — within error, -0.324 ± 0.24
- KKRQCKVLFEYIPQNEDELELKVGDIGDINEEVEEGWWSGTLNNKLGLFPSNFVKELEVTD [I27G] — within error, -0.939 ± 0.44
- KKRQCKVLFTYIPQNEDELELKVGDIIDINEEVEEGWWSGTLNNKLGLFPSNFVKELEVTD [E10T] — within error, -0.265 ± 0.12
- KMRQCKVLFEYIPQNEDELELKVGDIIDINEEVEEGWWSGTLNNKLGLFPSNFVKELEVTD [K2M] — higher, 0.011 ± 0.21
- KKRQCKVLFEYIPQNEDELELKVGDIIDINEEVEEGWWSGTLNNKLGLFPSNFVKELEVQD [T60Q] — higher, 0.039 ± 0.13
- KKRQCKVLFEYIPQNEDELELKVGDIIDINEEVEEGWWSGTLNNKLGLFPNNFVKELEVTD [S51N] — within error, -0.769 ± 0.4
- KKRQCKVLFEYIPQNEDELELKVGDIIDINEEVEEPWWSGTLNNKLGLFPSNFVKELEVTD [G36P] — lower, -0.939 ± 0.25
- KKRQCKVLFEYIPQNEDELELKVGDIIDINEEVEEGWWSGTLNNKLGLFPSDFVKELEVTD [N52D] — higher, -0.016 ± 0.1
- NKRQCKVLFEYIPQNEDELELKVGDIIDINEEVEEGWWSGTLNNKLGLFPSNFVKELEVTD [K1N] — higher, 0.265 ± 0.29
- KKRQCKVLFEYIPQNEDELELKVGDIIDINEEVEEGWWSGTLNNKLGLFPVNFVKELEVTD [S51V] — higher, -0.069 ± 0.067
- KKRQCKVLFEYIPQNEDELELKVGDIIDINEEVEEGWWSGTLNNKLGLFASNFVKELEVTD [P50A] — within error, -0.941 ± 0.31
- KKRQCKVLFEYIPQNEDELELKVGDIIDINEEVEEGWWSGTLNYKLGLFPSNFVKELEVTD [N44Y] — within error, -0.483 ± 0.33
- KKRQCKVLFEYIPQNEDELELKVGDIIDINEEVEEGWWSGTLNNKLGLFPSNFGKELEVTD [V54G] — within error, -0.661 ± 0.16
- KKRQCKVLFEYIPQNEDELELKVGDIIDINEEVEEGWWSGTLNNKLGLFPSNFVKESEVTD [L57S] — within error, -0.601 ± 0.14
- KKRQCKVLFEYIPQNEDELELKVGDIIDINEEREEGWWSGTLNNKLGLFPSNFVKELEVTD [V33R] — higher, 0.108 ± 0.17
